Laboratory results published in patent publication US20110135647A1 (ONCOTHERAPY SCIENCE, published 2011).

Columns and labels:
[1] = target: T1, myc-tagged p97 (p97/VCP-myc-6×His) (human, UniProt P55072 1-806); assay: co-immunoprecipitation with HA-tag antibody from co-transfected cells
T1 construct: Expressed in COS-7 cells; also called myc-p97; p97/VCP-myc-His; not shown: C-terminal myc-6×His tag of pcDNA3.1-myc-His

[2] = target: T2, GST-tagged PP1α (GST-PP1α) (human, UniProt P62136 1-330); assay: anti-HA immunoprecipitation from co-transfected COS-7 cells, anti-GST blot
T2 construct: also called GST-fused PP1α; not shown: glutathione S-transferase (GST) tag of the pCAGGS-nGST vector, N-terminal
T2 sequence (P62136 whole entry, the tested form may be a part): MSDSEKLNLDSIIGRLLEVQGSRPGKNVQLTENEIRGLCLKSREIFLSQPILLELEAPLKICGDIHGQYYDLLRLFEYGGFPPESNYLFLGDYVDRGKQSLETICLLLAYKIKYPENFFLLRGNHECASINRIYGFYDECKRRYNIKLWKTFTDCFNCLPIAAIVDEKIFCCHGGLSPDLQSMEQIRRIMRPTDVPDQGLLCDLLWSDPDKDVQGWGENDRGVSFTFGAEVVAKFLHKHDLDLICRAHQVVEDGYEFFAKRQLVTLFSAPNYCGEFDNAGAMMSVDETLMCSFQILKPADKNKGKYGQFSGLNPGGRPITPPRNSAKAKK

[3] = target: T3, HA-tagged A7322 (A7322-HA) (human, UniProt Q5TH69 1-2177); assay: co-immunoprecipitation from co-transfected COS-7 cells, anti-FLAG IP / anti-HA blot and the reverse
T3 construct: Expressed in COS-7 cells for the ERα co-immunoprecipitation; not shown: HA tag
T3 sequence (Q5TH69 whole entry): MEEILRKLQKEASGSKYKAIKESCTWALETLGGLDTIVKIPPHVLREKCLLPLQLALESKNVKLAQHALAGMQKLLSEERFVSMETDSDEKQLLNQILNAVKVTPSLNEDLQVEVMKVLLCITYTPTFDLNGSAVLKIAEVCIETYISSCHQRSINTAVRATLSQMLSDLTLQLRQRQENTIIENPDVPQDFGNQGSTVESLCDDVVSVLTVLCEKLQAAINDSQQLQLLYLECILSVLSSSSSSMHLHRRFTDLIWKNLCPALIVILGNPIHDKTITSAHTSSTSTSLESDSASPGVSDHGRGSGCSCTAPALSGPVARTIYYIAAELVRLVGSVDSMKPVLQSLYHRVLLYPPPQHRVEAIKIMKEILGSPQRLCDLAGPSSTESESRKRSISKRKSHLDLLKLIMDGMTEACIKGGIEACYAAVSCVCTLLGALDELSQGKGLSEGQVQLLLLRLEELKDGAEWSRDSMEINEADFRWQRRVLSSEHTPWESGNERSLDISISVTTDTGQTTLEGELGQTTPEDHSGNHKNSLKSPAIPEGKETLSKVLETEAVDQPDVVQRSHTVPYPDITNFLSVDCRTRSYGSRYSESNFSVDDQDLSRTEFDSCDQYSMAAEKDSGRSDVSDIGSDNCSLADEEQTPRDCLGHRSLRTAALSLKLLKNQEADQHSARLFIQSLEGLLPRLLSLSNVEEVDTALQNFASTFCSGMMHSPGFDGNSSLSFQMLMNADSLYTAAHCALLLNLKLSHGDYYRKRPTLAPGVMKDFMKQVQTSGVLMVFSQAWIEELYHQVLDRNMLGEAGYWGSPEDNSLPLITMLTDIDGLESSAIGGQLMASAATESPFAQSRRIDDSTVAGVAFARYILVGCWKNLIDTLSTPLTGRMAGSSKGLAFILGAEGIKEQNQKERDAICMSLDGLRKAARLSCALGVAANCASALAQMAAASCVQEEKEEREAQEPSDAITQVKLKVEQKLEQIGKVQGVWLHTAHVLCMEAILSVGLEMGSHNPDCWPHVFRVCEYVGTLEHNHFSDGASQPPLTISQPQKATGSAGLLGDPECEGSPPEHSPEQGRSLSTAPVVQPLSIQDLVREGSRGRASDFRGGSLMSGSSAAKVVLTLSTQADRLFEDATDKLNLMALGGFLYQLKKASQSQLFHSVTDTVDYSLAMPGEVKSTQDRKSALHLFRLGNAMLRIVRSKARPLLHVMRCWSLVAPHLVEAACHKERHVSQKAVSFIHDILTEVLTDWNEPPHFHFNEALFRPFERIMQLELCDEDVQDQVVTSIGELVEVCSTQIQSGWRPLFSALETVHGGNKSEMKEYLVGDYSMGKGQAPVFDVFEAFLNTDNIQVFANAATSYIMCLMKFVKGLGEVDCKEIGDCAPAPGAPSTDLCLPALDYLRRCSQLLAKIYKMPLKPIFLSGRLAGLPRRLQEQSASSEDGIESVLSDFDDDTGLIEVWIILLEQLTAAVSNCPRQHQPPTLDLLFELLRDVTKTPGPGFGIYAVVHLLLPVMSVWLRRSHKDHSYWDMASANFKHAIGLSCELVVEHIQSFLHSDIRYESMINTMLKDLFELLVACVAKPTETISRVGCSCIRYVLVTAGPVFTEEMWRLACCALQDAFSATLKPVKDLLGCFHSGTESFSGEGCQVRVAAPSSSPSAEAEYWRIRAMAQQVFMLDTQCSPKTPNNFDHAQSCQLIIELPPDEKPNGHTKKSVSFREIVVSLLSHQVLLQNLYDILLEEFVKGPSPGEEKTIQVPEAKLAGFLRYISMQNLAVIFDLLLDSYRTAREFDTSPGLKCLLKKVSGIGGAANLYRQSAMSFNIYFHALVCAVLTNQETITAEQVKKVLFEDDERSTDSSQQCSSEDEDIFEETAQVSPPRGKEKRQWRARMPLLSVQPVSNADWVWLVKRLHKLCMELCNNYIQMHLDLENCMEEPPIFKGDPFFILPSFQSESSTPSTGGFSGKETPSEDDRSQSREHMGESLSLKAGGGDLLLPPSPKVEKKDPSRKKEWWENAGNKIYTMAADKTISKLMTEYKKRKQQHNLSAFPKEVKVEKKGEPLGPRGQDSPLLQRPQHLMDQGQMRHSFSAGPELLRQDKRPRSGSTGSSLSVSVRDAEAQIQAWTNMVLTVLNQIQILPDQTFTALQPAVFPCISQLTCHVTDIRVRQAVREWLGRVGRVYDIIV

T1 sequence (P55072 whole entry): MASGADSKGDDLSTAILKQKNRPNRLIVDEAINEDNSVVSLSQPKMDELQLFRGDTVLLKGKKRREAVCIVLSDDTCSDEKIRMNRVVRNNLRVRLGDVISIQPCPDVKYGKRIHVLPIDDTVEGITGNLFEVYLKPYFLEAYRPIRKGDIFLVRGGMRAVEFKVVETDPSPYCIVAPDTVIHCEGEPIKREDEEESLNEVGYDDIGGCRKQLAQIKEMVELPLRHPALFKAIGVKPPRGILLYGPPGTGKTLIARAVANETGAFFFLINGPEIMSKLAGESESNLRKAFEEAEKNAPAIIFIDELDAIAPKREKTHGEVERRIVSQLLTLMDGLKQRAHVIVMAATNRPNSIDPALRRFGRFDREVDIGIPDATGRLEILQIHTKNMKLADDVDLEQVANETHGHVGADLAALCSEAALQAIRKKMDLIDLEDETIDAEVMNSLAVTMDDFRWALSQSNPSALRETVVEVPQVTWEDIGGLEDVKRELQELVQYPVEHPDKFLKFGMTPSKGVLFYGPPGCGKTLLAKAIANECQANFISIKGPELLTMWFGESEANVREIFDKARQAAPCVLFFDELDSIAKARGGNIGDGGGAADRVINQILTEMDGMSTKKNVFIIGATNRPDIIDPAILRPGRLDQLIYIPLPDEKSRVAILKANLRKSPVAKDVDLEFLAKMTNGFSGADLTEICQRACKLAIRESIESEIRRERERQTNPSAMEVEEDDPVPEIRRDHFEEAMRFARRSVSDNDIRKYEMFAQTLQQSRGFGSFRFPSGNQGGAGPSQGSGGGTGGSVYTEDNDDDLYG

Binder	binding result [1]	binding result [2]	binding result [3]
HA-tagged PBK/TOPK (HA-PBK/TOPK), wild type (enzyme, Expressed in COS-7 or T47D cells; also called HA-tagged TOPK; WT; not shown: N-terminal HA tag (pCAGGSnHA)) MEGISNFKTPSKLSEKKKSVLCSTPTINIPASPFMQKLGFGTGVNVYLMKRSPRGLSHSPWAVKKINPICNDHYRSVYQKRLMDEAKILKSLHHPNIVGYRAFTEANDGSLCLAMEYGGEKSLNDLIEERYKASQDPFPAAIILKVALNMARGLKYLHQEKKLLHGDIKSSNVVIKGDFETIKICDVGVSLPLDENMTVTDPEACYIGTEPWKPKEAVEENGVITDKADIFAFGLTLWEMMTLSIPHINLSNDDDDEDKTFDESDFDDEAYYAALGTRPPINMEELDESYQKVIELFSVCTNEDPKDRPSAAHIVEALETDV	no binding	binds	–
FLAG-tagged ERα (ERα-FLAG) (receptor, UniProt P03372 1-595, looked up, Expressed in COS-7 cells; also called FLAG-ERα; estrogen receptor α; not shown: FLAG tag) MTMTLHTKASGMALLHQIQGNELEPLNRPQLKIPLERPLGEVYLDSSKPAVYNYPEGAAYEFNAAAAANAQVYGQTGLPYGPGSEAAAFGSNGLGGFPPLNSVSPSPLMLLHPPPQLSPFLQPHGQQVPYYLENEPSGYTVREAGPPAFYRPNSDNRRQGGRERLASTNDKGSMAMESAKETRYCAVCNDYASGYHYGVWSCEGCKAFFKRSIQGHNDYMCPATNQCTIDKNRRKSCQACRLRKCYEVGMMKGGIRKDRRGGRMLKHKRQRDDGEGRGEVGSAGDMRAANLWPSPLMIKRSKKNSLALSLTADQMVSALLDAEPPILYSEYDPTRPFSEASMMGLLTNLADRELVHMINWAKRVPGFVDLTLHDQVHLLECAWLEILMIGLVWRSMEHPGKLLFAPNLLLDRNQGKCVEGMVEIFDMLLATSSRFRMMNLQGEEFVCLKSIILLNSGVYTFLSSTLKSLEEKDHIHRVLDKITDTLIHLMAKAGLTLQQQHQRLAQLLLILSHIRHMSNKGMEHLYSMKCKNVVPLYDLLLEMLDAHRLHAPTSRGGASVEETDQSHLATAGSTSSHSLQKYYITGEAEGFPATV	–	–	no binding
